Laboratory results: patent US20120282700A1

Assays:
M13/HRP antibody = experiment: depletion of M13/HRP antibody (0.45-9.0 µg/mL) from the supernatant by pSDLBA3b cells, TMB read-out, Langmuir linear regression
[1] = biological target: Alexa Fluor 488 conjugated rabbit anti-mouse antibody (Invitrogen; A-11059); experiment: flow cytometry, 2 µg Alexa Fluor 488 rabbit anti-mouse antibody on Sdlba3b-expressing L. lactis cells; control cells (pNZ8148) 2.26
[2] = biological target: Alexa Fluor 488 conjugated rabbit anti-mouse antibody (Invitrogen; A-11059); experiment: flow cytometry with Alexa Fluor 488 rabbit anti-mouse antibody after 30 min in simulated gastric juice (pepsin, pH 2.0 or 4.0), against incubation at pH 7.0

- maximum amount of adsorbed antibody (µg per 1×10^8 cells) (M13/HRP antibody): 0.146
- mean fluorescence intensity [1]: 151
- loss of fluorescence intensity [2]: < 14%
Substance: Sdlba3b fusion protein (encoded by pSDLBA3b), immunoglobulin-binding B domain displayed on the surface of L. lactis (from UniProt P38507 212-269)
